Substitutions are numbered along the chain they refer to.
B1: s10 (RO6D8-s10) 抗ROR1单克隆抗体 (antibody, V domains shown)
VH: QVQLVQSGAEVKKPGASVKVSCKASGYTFTNYYMHWVRQAPGQGLEWMGIINPSGGSTSYAQKFQGRVTMTRDTSTSTVYMELSSLRSEDTAVYYCARSSRSSYYLWVLDLWGQGTTVTVSS
VL: AIQMTQSPSSLSASVGDRVTITCRASQGVSTEIAWYQQKPGKAPKLLIYAASSLQSGVPSRFSGSGSGTDFTLTISSLQPEDFATYYCQQFNSYPITFGQGTRLEIK
B2: jlv1011 (RO6D8-jlv1011) 抗ROR1单克隆抗体 (antibody, V domains shown)
VH: QVQLVQSGAEVKKPGASVKVSCKASGYTFTSKYYHWVRQAPGQGLEWMGIINPTSGSTSYAQKFQGRVTMTRDTSTSTVYMELSSLRSEDTAVYYCARDSSRYSGWYFDLWGQGTTVTVSS
VL: B1 VL with M4L, F91Y, N92Y, S93G, T97A

Target: 重组小鼠ROR1 IgG2-Fc融合蛋白 (R&D系统公司, 目录号9910-RO-050) (mouse, UniProt Q9Z139 30-403)
Assay: ELISA, coated mouse ROR1 IgG2-Fc, antibody dilutions, anti-human IgG Fc-HRP

Chain of 重组小鼠ROR1 IgG2-Fc融合蛋白 (R&D系统公司, 目录号9910-RO-050) (Q9Z139 30-403 limits assumed): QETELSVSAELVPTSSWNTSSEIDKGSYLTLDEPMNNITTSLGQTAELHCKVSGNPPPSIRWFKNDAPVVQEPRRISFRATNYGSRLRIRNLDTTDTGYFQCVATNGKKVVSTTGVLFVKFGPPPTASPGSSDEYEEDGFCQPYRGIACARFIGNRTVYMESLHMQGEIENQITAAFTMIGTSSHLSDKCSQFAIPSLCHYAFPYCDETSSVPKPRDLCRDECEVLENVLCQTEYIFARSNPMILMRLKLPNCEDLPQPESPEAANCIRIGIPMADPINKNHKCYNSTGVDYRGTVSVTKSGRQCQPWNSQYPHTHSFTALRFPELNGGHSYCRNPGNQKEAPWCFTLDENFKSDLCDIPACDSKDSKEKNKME

Binder | binding result
B1 | binds
B2 | binds

Reference: patent publication CN117460833A (dated 2024)
